Assay results taken from article PMC2962499.

Target: fluorescently labeled SpRpn12 (Schizosaccharomyces pombe) (UniProt P50524)
Test: fluorescence polarisation

Kd: 18 µM
Binder: NQFEYGVDPNLDVELALALELSMAEERARQEVAAQKSSEETEDKKMQE (domain or fragment) [SpRpn10 residues 196-243 (UIM-containing C-terminal sequence)]
